Test [1] addresses HLA-A*02:01 loaded with PRAME peptide Q4R (human, Non-covalent three-chain complex; biotinylated for capture on the chip, site or tag of biotinylation not stated.). As to the kind of experiment: SPR (Biacore 8K), pMHC captured, Fab-scFv analyte. As to the method: (§1) Recombinantly produced hits in Fab-scFv format, as described in Example 4, were evaluated for their ability to bind HLA-A*02:01/PRAME antigen. Binding characterization was performed by surface plasmon resonance (SPR) using a Biacore™ 8k (Cytiva) device. Briefly, 3000 RU of Biotin CAPture reagent (Cytiva) was immobilized on a Series S Sensor Chip CAP (Cytiva) and the biotinylated ligand HLA-A*02:01/PRAME (SEQ ID NO: 68) was diluted in HPS-EP+ running buffer (TEKNOVA) and captured for 300 s at a flow rate of 2 μL/min at flow cell 2 resulting in a ligand capture level of >100 RU. Subsequently, at least three consecutive analyte injections were performed at suitable concentrations applying the single-cycle-kinetics mode at a flow rate of 30 μL/min with an association time of 90 s and the dissociation time set to >400 s. The chip surface was regenerated according to the manufacturer's instructions. After reference flow cell signal and blank injections subtraction, the data was fit to a 1:1 Langmuir binding model to determine the association rate constant kₐ and dissociation rate constant kd and calculate the equilibrium dissociation constant KD (kd/kₐ), also denoted as affinity, using the Biacore™ Insight Evaluation software.
(§2) The molecular recognition profile of monovalent (Fab-scFv) antigen binding molecules M3076 and M3287 for HLA-A*02:01/PRAME binding (equivalent bivalent (Fab-(scFv)₂) antigen binding molecules are M3167 and M3292, respectively) were determined by SPR measurements with HLA-A*02:01 complexes loaded with PRAME peptide or peptides containing a single amino acid substitution to alanine, arginine or aspartic acid. The kinetic parameters for each HLA-A*02:01 complex loaded with a peptide was determined by SPR, according to the previously described method in Example 5.
In general terms: SPR reads the build-up and loss of mass on a sensor chip optically.

Test [2] concerns the target HLA-A*02:01 loaded with PRAME peptide S1R (human, Non-covalent three-chain complex; biotinylated for capture on the chip, site or tag of biotinylation not stated.). Description: SPR (Biacore 8K), pMHC captured, Fab-scFv analyte. As to the method:
as §1, §2

Test [3] concerns the target HLA-A*02:01 loaded with PRAME peptide L3R (human, Non-covalent three-chain complex; biotinylated for capture on the chip, site or tag of biotinylation not stated.). As to the kind of experiment: SPR (Biacore 8K), pMHC captured, Fab-scFv analyte. The method, then: as §1, §2
The target in test [4] is HLA-A*02:01 loaded with PRAME peptide I7R (human, pMHC ligand was biotinylated for capture (Example 5); site or tag of biotinylation not disclosed). As to the kind of experiment: SPR (Biacore 8K), pMHC captured, Fab-scFv analyte. The method, then: as §1, §2
Test [5] concerns the target HLA-A*02:01 loaded with PRAME peptide L6R (human, Non-covalent three-chain complex; biotinylated for capture on the chip, site or tag of biotinylation not stated.). Description: SPR (Biacore 8K), pMHC captured, Fab-scFv analyte. As to the method: as §1, §2
Test [6] addresses HLA-A*02:01 loaded with PRAME peptide G8R (human, pMHC ligand was biotinylated for capture (Example 5); site or tag of biotinylation not disclosed). As to the kind of experiment: SPR (Biacore 8K), pMHC captured, Fab-scFv analyte. The method, then: as §1, §2
The target of test [7] is T1, HLA-A*02:01/PRAME antigen (recombinant, … on HLA-A*02:01) (human, Complex biotinylated for SPR capture; site of biotin and any tag not stated, not in the letters.).
T1 construct: also called PRAME target; pMHC
As to the kind of experiment: SPR (Biacore 8K), biotinylated pMHC captured, Fab-scFv analyte, single-cycle kinetics, 1:1 fit. The method, then:
as §1

For test [8], the target named is HLA-A*02:01 loaded with PRAME peptide G8D (human, Complex was biotinylated for capture on the SPR chip; site or tag of biotinylation not disclosed and not in the letters.). As to the kind of experiment: SPR (Biacore 8K), pMHC captured, Fab-scFv analyte. The method, then: as §1, §2
Test [9] deals with HLA-A*02:01 loaded with PRAME peptide L2D (human, pMHC ligand was biotinylated for capture (Example 5); site or tag of biotinylation not disclosed). As to the kind of experiment: SPR (Biacore 8K), pMHC captured, Fab-scFv analyte. As to the method:
as §1, §2

The target in test [10] is HLA-A*02:01 loaded with PRAME peptide S1D (human, pMHC ligand was biotinylated for capture (Example 5); site or tag of biotinylation not disclosed). As to the kind of experiment: SPR (Biacore 8K), pMHC captured, Fab-scFv analyte. As to the method: as §1, §2
Test [11] deals with HLA-A*02:01 loaded with PRAME peptide I7D (human, Complex was biotinylated for capture on the SPR chip; site or tag of biotinylation not disclosed and not in the letters.). As to the kind of experiment: SPR (Biacore 8K), pMHC captured, Fab-scFv analyte. As to the method: as §1, §2
Test [12] has as its target HLA-A*02:01 loaded with PRAME peptide L9D (human, Complex was biotinylated for capture on the SPR chip; site or tag of biotinylation not disclosed and not in the letters.). As to the kind of experiment: SPR (Biacore 8K), pMHC captured, Fab-scFv analyte. The method, then: as §1, §2
Test [13] deals with HLA-A*02:01 loaded with PRAME peptide H5D (human, pMHC ligand was biotinylated for capture (Example 5); site or tag of biotinylation not disclosed). As to the kind of experiment: SPR (Biacore 8K), pMHC captured, Fab-scFv analyte. As to the method: as §1, §2
Test [14] concerns the target T1, HLA-A*02:01/PRAME antigen (recombinant, …). As to the kind of experiment: SPR (Biacore 8K), pMHC captured, Fab-scFv analyte. As to the method: as §1, §2
Test [15] has as its target HLA-A*02:01 loaded with PRAME peptide L6D (human, Complex was biotinylated for capture on the SPR chip; site or tag of biotinylation not disclosed and not in the letters.). As to the kind of experiment: SPR (Biacore 8K), pMHC captured, Fab-scFv analyte. The method, then:
as §1, §2

Test [16] addresses HLA-A*02:01 loaded with PRAME peptide L3D (human, pMHC ligand was biotinylated for capture (Example 5); site or tag of biotinylation not disclosed). Description: SPR (Biacore 8K), pMHC captured, Fab-scFv analyte. As to the method:
as §1, §2

The target in test [17] is HLA-A*02:01 loaded with PRAME peptide Q4D (human, pMHC ligand was biotinylated for capture (Example 5); site or tag of biotinylation not disclosed). Description: SPR (Biacore 8K), pMHC captured, Fab-scFv analyte. The method, then:
as §1, §2

As a reminder, the Kd is a measure of binding affinity in units of concentration.

B1: M3076 (bispecific antibody)
heavy: EVQLVESGGGLVQPGGSLRLSCAASGFTFSTYAMNWVRQAPGKGLEWVGRIRSKYNNYATYYADSVKGRFTISRDDSKNTLYLQMNSLRAEDTAVYYCVRHGNFGDSYVSWFAYWGQGTLVTVSSASTKGPSVFPLAPSSKSTSGGTAALGCLVKDYFPEPVTVSWNSGALTSGVHTFPAVLQSSGLYSLSSVVTVPSSSLGTQTYICNVNHKPSNTKVDKKVEPKSCGGGGSDIQMTQSPSSLSASVGDRVTITCRSSQSVYNNLLGWYQQKPGKAPKLLIYSASTLASGVPSRFSGSGSGTDFTLTISSLQPEDFATYYCQGTYYNGDWYYPFGCGTKVEIKGGGGSGGGGSGGGGSGGGGSQVQLVESGGGSVQPGRSLRLSCAASGFDFSTYGVSWVRQAPGKCLEWIGYIDPVYGSTHYADSVKGRFTISRDNSKNTLYLQMNSLRAEDTASYYCVRDLYAGSSGYYMIYSLWGQGTSVTVSS
light: QAVVTQEPSLTVSPGGTVTLTCGSSTGAVTTSNYANWVQQKPGKSPRGLIGGTNKRAPGVPARFSGSLLGGKAALTISGAQPEDEADYYCALWYSNHWVFGGGTKLTVLGQPKAAPSVTLFPPSSEELQANKATLVCLISDFYPGAVTVAWKADSSPVKAGVETTTPSKQSNNKYAASSYLSLTPEQWKSHRSYSCQVTHEGSTVEKTVAPTECS
notes: Humanized variant of M2638, monovalent Fab-scFv; bivalent equivalent is M3167
B1: the Kd came out at 0.08 nM in test [1]; 0.08 nM in test [2]; 1 nM in test [3]; 18 nM in test [4]; 0.07 nM in test [7]; 0.06 nM in [10]. The equilibrium dissociation constant (Kd) in [12] was 0.83 nM; in [13] it was 0.44 nM; in [14], 0.08 nM; in test [16], 0.09 nM; in [17], 0.34 nM. For the same molecule, the binding result in [5], in test [6], in [8], in [9], in test [11] and in [15] was “no binding” in each case.

B2: M3287 (bispecific antibody)
heavy: EVQLVESGGGLVQPGGSLRLSCAASGFTFSTYAMNWVRQAPGKGLEWVGRIRSKYNNYATYYADSVKGRFTISRDDSKNTLYLQMNSLRAEDTAVYYCVRHGNFGDSYVSWFAYWGQGTLVTVSSASTKGPSVFPLAPSSKSTSGGTAALGCLVKDYFPEPVTVSWNSGALTSGVHTFPAVLQSSGLYSLSSVVTVPSSSLGTQTYICNVNHKPSNTKVDKKVEPKSCGGGGSDIQMTQSPSSLSASVGDRVTITCRSSQSVYNNLLGWYQQKPGKAPKLLIYSASTLASGVPSRFSGSGSGTDFTLTISSLQPEDSATYYCQGTYYTGDWYYPFGCGTKVEIKGGGGSGGGGSGGGGSGGGGSQVQLVESGGGSVQPGRSLRLSCAASGFDFSTYGVSWVRQAPGKCLEWIGYIDPVYGSTHYADSVKGRFTISRDNSKNTLYLQMNSLRAEDTASYYCVRDLYAGSSGYYVIYSLWGQGTSVTVSS
light: QAVVTQEPSLTVSPGGTVTLTCGSSTGAVTTSNYANWVQQKPGKSPRGLIGGTNKRAPGVPARFSGSLLGGKAALTISGAQPEDEADYYCALWYSNHWVFGGGTKLTVLGQPKAAPSVTLFPPSSEELQANKATLVCLISDFYPGAVTVAWKADSSPVKAGVETTTPSKQSNNKYAASSYLSLTPEQWKSHRSYSCQVTHEGSTVEKTVAPTECS
notes: Humanized variant of M2638, monovalent Fab-scFv; bivalent equivalent is M3292
Consider B2, for which the Kd in test [1] came out at 0.49 nM; in test [2] it was 0.57 nM; in test [3], 9.2 nM; in test [4] it was 83 nM; in [7], 0.57 nM; in test [10] it was 0.53 nM. Also, the Kd is 2.7 nM in test [12]; 4.6 nM in [13]; 0.57 nM in [14]; 0.63 nM in test [16]; 3.4 nM in [17]. Besides, the binding result in test [5], in test [6], in test [8], in test [9], in test [11] and in test [15] was “no binding” in each case.

These data come from patent US20250333514A1 (CDR LIFE, published 2025).
